Molecular target: Human Leukocyte Antigen (HLA) on the surface of human cells (human)
Assay: cell-based or functional assay

With “anti-HLA monoclonal antibody clone W6/32 (mouse, ThermoFisher)” as the substance, how does the antibody concentration of highest luciferase transduction of SKBR3 cells read?
The antibody concentration of highest luciferase transduction of SKBR3 cells was 10 µg/mL.

From patent publication US20260061072A1
